Converted amounts (≈) assume the structure as drawn. Where two headings read alike, the source gives them in different places.
Tests used:
[1] = tested on: C. difficile NCTC 11204; assay: Combination drug MIC (checkerboard), C. difficile NCTC 11204, RCM; type: cell-based, Clostridium difficile
[2] = tested on: C. difficile 14000287; assay: Combination drug MIC (checkerboard), C. difficile 14000287, Brucella broth; type: cell-based, Clostridium difficile
[3] = tested on: Vancomycin resistant Enterococcus faecium; assay: Combination drug MIC (checkerboard), Enterococcus faecium; type: cell-based
[4] = tested on: Clostridium difficile NCR 1104; assay: microbe, parasite or virus in culture; type: cell-based
[5] = tested on: C. difficile acetyl-CoA acetyl transferase (thiolase); assay: Immunoblot of H1L1 against cloned acetyl-CoA acetyl transferase; type: binding, Clostridium difficile; conditions: H1L1 at 1:10 (approximately 400 μg/ml), purified His-tag thiolase, band just under 50 kD marker
Protocol: Cloned and purified acetyl-CoA acetyl transferase was mixed 1:1 with loading buffer and DTT and put on heating block at 90° C. for 5 minutes. 5-15 μl was separated for 35 minutes on a 10% BisTris gel (Invitrogen) using NuPAGE-MES SDS running buffer (Invitrogen).
The proteins were transblotted onto Invitrolon PVDF membrane (Invitrogen Ltd, Carlsbad, Calif., USA) and blocked in 5% skimmed milk in 0.1% Tween20 in 10 mM PBS for 1 hour. The membrane was incubated with H1L1 at 1:10 (concentration approximately 400 μg/ml) in 0.1% Tween20 in 10 mM PBS for 1 hour. Washed three times for 5 minutes with 0.1% Tween20 in 10 mM PBS and then incubated for one hour with S-protein HRP conjugate (Novagen) at 1:1000.

[6] = tested on: Clostridium difficile; assay: Growth of Clostridium difficile in the presence of SCFA and H1L1 (OD600); type: cell-based; conditions: for Mean Optical Density at 24 Hours: OD600
Protocol: The three SCFAs used were acetate, propionate and butyrate.
Each was prepared to a concentration of 1 M as follows: • Sodium acetate FW 82.03-82.03 g in 1 litre dH2O • Sodium butyrate FW 110.09-110.09 g in 1 litre dH2O • Sodium propionate FW 96.06-96.06 g in 1 litre dH2O
The three solutions were combined in a ratio of 70:20:10 respectively. Therefore, in the final solution the concentrations were sodium acetate 0.7 M, sodium butyrate 0.2 M and sodium propionate 0.1 M. The final concentration of total SCFA was 1 M.
From this stock solution concentrations of 5, 10, 20, 30, 40 and 50 mM total SCFA were prepared using reinforced clostridial medium (RCM, DIFCO).
Reinforced clostridial medium (RCM) was prepared according to the manufacturers instructions: 38 g in 1 litre dH2O
Cultures were only removed from anaerobic conditions immediately prior to use.
An overnight suspension of C. difficile was made by inoculation 10 ml of RCM medium with colonies from a 48 hour old Columbia Blood Agar plate of the organism. The suspension was incubated for 24 hours at 37° C. under anaerobic conditions.
In a flat-bottomed 96 well microtitre plate control solutions (200 μl) were placed in the wells as outlined below in Table 4. Each control used 3 wells.
In a flat-bottomed 96 well microtitre plate (rows labelled A-H, columns labelled 1-12) test solutions (100 μl) were placed in the wells as detailed below. The two test solutions, SCFA plus H1L1, give a combined volume of 200 μl. Each test used 2 wells. […] Wells in columns 1 and 2 contained 16 μg/ml H1L1; in columns 3 and 4, 8 μg/ml H1L1; in columns 5 and 6, 4 μg/ml H1L1; in columns 7 and 8, 2 μg/ml H1L1; in columns 9 and 10, 1 μg/ml H1L1; in columns 11 and 12, 0.5 μg/ml H1L1. Row G was empty. 200 μl RCM was placed into all the wells in row H as a growth control for the plate.
The overnight suspension, culture at late log phase, was used to inoculate the microtitre plates. 20 μl (approx 10% inoculum) was added to all the wells, except for the media/negative control on the control plate.
Plates were incubated at 37° C. under anaerobic conditions for 24 hours.
Optical density readings (OD600 nm) were made at time points zero and 24 hours. Average OD600 nm readings were determined.

[7] = gentamicin + H1L1 combination, Brucella broth
[8] = 8 μg/ml of H1L1 and SCFA from 10-50 mM

Sequence of C. difficile acetyl-CoA acetyl transferase (thiolase) (as listed by the source): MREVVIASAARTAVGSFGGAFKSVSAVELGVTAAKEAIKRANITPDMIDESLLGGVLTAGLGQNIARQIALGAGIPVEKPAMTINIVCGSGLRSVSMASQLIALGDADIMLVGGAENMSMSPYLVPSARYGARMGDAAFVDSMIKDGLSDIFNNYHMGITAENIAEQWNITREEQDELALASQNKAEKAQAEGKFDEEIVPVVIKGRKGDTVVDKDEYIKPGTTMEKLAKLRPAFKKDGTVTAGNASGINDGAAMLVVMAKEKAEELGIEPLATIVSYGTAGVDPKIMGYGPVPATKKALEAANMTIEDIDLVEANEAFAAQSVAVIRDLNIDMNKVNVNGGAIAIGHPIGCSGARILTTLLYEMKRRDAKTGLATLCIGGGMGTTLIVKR

With gentamicin [reference compound] the “MIC (μg/ml) of each agent Alone” value [1] was 16 µg/mL, the “FIC (μg/ml)” value ([1]; gentamicin + H1L1 combination) was 0.25 and the FICI ([1]; gentamicin + H1L1 combination) was 0.375. For the same molecule, the “MIC (μg/ml) of each agent Combination” value ([1]; gentamicin + H1L1 combination) was 4 µg/mL, the Outcome ([1]; gentamicin + H1L1 combination) was “Synergy” and the “MIC (μg/ml) of each agent Alone” value ([2]; Brucella broth) was 8 µg/mL. For the same molecule, the “FIC (μg/ml)” value [2, 7] was 0.25, the FICI [2, 7] was 0.266 and the “MIC (μg/ml) of each agent Combination” value [2, 7] was 2 µg/mL. The Outcome [2, 7] was “Synergy”.

With `CN[C@H](CC(C)C)C(=O)N[C@H]1C(=O)N[C@@H](CC(N)=O)C(=O)N[C@H]2C(=O)N[C@H]3C(=O)N[C@H](C(=O)N[C@H](C(=O)O)c4cc(O)cc(O)c4-c4cc3ccc4O)[C@H](O)c3ccc(c(Cl)c3)Oc3cc2cc(c3O[C@@H]2O[C@H](CO)[C@@H](O)[C@H](O)[C@H]2O[C@H]2C[C@](C)(N)[C@H](O)[C@H](C)O2)Oc2ccc(cc2Cl)[C@H]1O` [Vancomycin, vancomycin] the FICI [3] was 0.37, the “MIC (μg/ml) of each agent Combination” value [3] was 16 µg/mL and the Outcome [3] was “Synergy”. The MIC ([3]; Enterococcus faecium, 24 h, read-out: MIC (μg/ml) of each agent Alone) was 128 µg/mL, the FICI [4] was 0.125 and the “MIC (μg/ml) of each agent Combination” value [4] was 0.125 µg/mL. For the same molecule, the Outcome [4] was “Synergy” and the MIC ([4]; Clostridioides difficile, NCR1104, 48 h, read-out: MIC (μg/ml) of each agent Alone) was 1 µg/mL (≈ 0.69 µM).

B1: H1L1: synthetic antibody S Tag-CDH1-Linker-CDL1-His Tag, SEQ ID NO: 41, from dominant VH and VL of C. difficile patients; binds acetyl-CoA acetyltransferase (protein)
chain: EVQLVESGPGLVKPSETLSLTCTVSGGSVSSGSYSWSWIRQRPGQGLEWIGFIYYTGYTSYKSSLKSRVSLSVDTSNDQFSLSLSSVTAADTAVYYCAREIRAPDHHDFSGYLGRWGQGTLVTVSSGGSGGGGSGGGGSASKSSELTQDPAVSVALGQTVRITCQGDSLRSYYASWYQQKPGQAPVLVIYGKNNRPSGIPDRFSGSSSGNTASLTITGAQAEDEADYYCNSRDSTGNQLFGGGTKVTVLG
modifications: synthetic H1L1 antibody
With B1 the “MIC (μg/ml) of each agent Alone” value ([3]; agent alone, 24 h) was 512 µg/mL, the “FIC (μg/ml)” value ([3]; vancomycin + H1L1 combination) was 0.25 and the “MIC (μg/ml) of each agent Combination” value ([3]; vancomycin + H1L1 combination) was 128 µg/mL. For the same molecule, the Outcome ([3]; vancomycin + H1L1 combination) was “synergy (synergy was defined by a value of <=0.5)”, the “MIC (μg/ml) of each agent Alone” value [1] was 512 µg/mL and the “FIC (μg/ml)” value ([1]; gentamicin + H1L1 combination) was 0.125. For the same molecule, the “MIC (μg/ml) of each agent Combination” value ([1]; gentamicin + H1L1 combination) was 64 µg/mL, the Outcome ([1]; gentamicin + H1L1 combination) was “synergy (synergy was defined by a value of <=0.5)” and the “FIC (μg/ml)” value [4] was 0.0004. For the same molecule, the “MIC (μg/ml) of each agent Combination” value [4] was 0.25 µg/mL, the Outcome [4] was “synergy (key: synergy was defined by a value of <=0.5; indifference was defined by a value of >0.5 to <4; antagonism was defined by a value of >=4.0)” and the “Immunoblot response to the thiolase band” value [5] was “strong response”. The “Outcome of combination” value ([2]; H1L1 and vancomycin versus C. difficile 14000287) was “synergy (synergy was defined by a value of <=0.5)”, the “MIC (μg/ml) of each agent Alone” value ([2]; Brucella broth) was 512 µg/mL and the “FIC (μg/ml)” value [2, 7] was 0.0156. The “MIC (μg/ml) of each agent Combination” value [2, 7] was 8 µg/mL, the Outcome [2, 7] was “synergy (synergy was defined by a value of <=0.5)” and the “Interaction of H1L1 and SCFA” value [6, 8] was “Synergy”. For the same molecule, the “optical density at 24 hours” value [6, 8] was 0.296-0.330, the “Effect on growth” value ([6]; 16 μg/ml of H1L1 alone) was “inhibition” and the “Effect on growth” value ([6]; 0.5, 1, 2, 4 and 8 μg/ml of H1L1 alone) was “No effect”. For the same molecule, the “Interaction of H1L1 and SCFA” value ([6]; 1, 2 and 4 μg/ml of H1L1 and 5 mM of SCFA (data not shown)) was “Indifference”, the “Mean Optical Density at 24 Hours” value ([6]; H1L1 0.5 μg/ml alone) was 0.450 and the “Mean Optical Density at 24 Hours” value ([6]; H1L1 1 μg/ml alone) was 0.440. The “Mean Optical Density at 24 Hours” value ([6]; H1L1 2 μg/ml alone) was 0.440, the “Mean Optical Density at 24 Hours” value ([6]; H1L1 4 μg/ml alone) was 0.440 and the “Mean Optical Density at 24 Hours” value ([6]; H1L1 8 μg/ml + SCFA 10 mM) was 0.310. For the same molecule, the “Mean Optical Density at 24 Hours” value ([6]; H1L1 8 μg/ml + SCFA 20 mM) was 0.296, the “Mean Optical Density at 24 Hours” value ([6]; H1L1 8 μg/ml + SCFA 30 mM) was 0.305 and the “Mean Optical Density at 24 Hours” value ([6]; H1L1 8 μg/ml + SCFA 40 mM) was 0.310. The “Mean Optical Density at 24 Hours” value ([6]; H1L1 8 μg/ml + SCFA 50 mM) was 0.330, the “Mean Optical Density at 24 Hours” value ([6]; H1L1 8 μg/ml alone) was 0.420 and the “Mean Optical Density at 24 Hours” value ([6]; H1L1 16 μg/ml + SCFA 10 mM) was 0.308. For the same molecule, the “Mean Optical Density at 24 Hours” value ([6]; H1L1 16 μg/ml + SCFA 20 mM) was 0.228, the “Mean Optical Density at 24 Hours” value ([6]; H1L1 16 μg/ml + SCFA 30 mM) was 0.308 and the “Mean Optical Density at 24 Hours” value ([6]; H1L1 16 μg/ml + SCFA 40 mM) was 0.303. For the same molecule, the “Mean Optical Density at 24 Hours” value ([6]; H1L1 16 μg/ml + SCFA 50 mM) was 0.281 and the “Mean Optical Density at 24 Hours” value ([6]; H1L1 16 μg/ml alone) was 0.334.

Source: patent publication US7608265B2, “Treatment for bacterial infections” (priority 2004, dated 2009)
